From patent CN115368464A (HEFEI TIANGANG IMMUNOLOGY PHARMACEUTICAL CO LTD, dated 2022)

Target: T1, CD33蛋白 (SEQ ID NO:27) on CHO-K1-CD33 / A375-CD33 cells (Homo sapiens (Human), UniProt P20138 18-364)
T1 construct: also called CHO-K1-CD33细胞; A375-CD33细胞
Assay: flow cytometry on CHO-K1-CD33 cells, Alexa-647 anti-human Fc

T1 sequence (P20138 18-364 limits assumed): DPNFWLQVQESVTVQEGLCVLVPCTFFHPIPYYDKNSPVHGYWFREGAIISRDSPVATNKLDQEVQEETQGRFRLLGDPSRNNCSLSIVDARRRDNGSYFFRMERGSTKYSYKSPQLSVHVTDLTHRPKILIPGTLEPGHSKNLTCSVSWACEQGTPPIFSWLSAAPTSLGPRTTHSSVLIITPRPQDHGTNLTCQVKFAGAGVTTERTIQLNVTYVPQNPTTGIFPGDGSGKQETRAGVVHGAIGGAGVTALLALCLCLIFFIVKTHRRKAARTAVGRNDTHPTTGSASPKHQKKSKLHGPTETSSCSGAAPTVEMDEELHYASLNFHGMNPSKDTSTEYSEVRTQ

B1: CD3×CD33双特异性抗体 (bispecific antibody, human IgG1, kappa, L234A L235A)
chain: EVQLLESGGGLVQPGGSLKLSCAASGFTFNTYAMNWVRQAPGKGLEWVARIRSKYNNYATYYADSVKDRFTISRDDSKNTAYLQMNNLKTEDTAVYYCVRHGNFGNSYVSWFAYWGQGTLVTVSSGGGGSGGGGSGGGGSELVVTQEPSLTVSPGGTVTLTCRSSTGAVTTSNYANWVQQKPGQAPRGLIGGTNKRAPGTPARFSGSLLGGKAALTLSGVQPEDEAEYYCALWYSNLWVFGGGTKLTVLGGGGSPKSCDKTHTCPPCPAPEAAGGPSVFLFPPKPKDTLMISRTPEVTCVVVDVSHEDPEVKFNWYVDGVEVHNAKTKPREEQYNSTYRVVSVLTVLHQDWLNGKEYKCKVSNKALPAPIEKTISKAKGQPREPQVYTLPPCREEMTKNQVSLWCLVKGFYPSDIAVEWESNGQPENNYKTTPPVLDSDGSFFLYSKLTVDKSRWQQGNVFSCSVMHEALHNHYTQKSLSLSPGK
heavy: EVQLVQSGAEVKKPGSSVKVSCKASGYTITDSNIHWVRQAPGQSLEWIGYIYPYNGGTDYNQKFKNRATLTVDNPTNTAYMELSSLRSEDTAFYYCVNGNPWLAYWGQGTLVTVSSASTKGPSVFPLAPSSKSTSGGTAALGCLVKDYFPEPVTVSWNSGALTSGVHTFPAVLQSSGLYSLSSVVTVPSSSLGTQTYICNVNHKPSNTKVDKKVEPKSCDKTHTCPPCPAPEAAGGPSVFLFPPKPKDTLMISRTPEVTCVVVDVSHEDPEVKFNWYVDGVEVHNAKTKPREEQYNSTYRVVSVLTVLHQDWLNGKEYKCKVSNKALPAPIEKTISKAKGQPREPQVCTLPPSREEMTKNQVSLSCAVKGFYPSDIAVEWESNGQPENNYKTTPPVLDSDGSFFLVSKLTVDKSRWQQGNVFSCSVMHEALHNHYTQKSLSLSPGK
light: DIQLTQSPSTLSASVGDRVTITCRASESLDNYGIRFLTWFQQKPGKAPKLLMYAASNQGSGVPSRFSGSGSGTEFTLTISSLQPDDFATYYCQQTKEVPWSFGQGTKVEVKRTVAAPSVFIFPPSDEQLKSGTASVVCLLNNFYPREAKVQWKVDNALQSGNSQESVTEQDSKDSTYSLSSTLTLSKADYEKHKVYACEVTHQGLSSPVTKSFNRGEC
notes: Fc is human IgG1 with L234A/L235A; also called 抗体CD3×CD33; CD3×CD33双特异抗体
Q: Does B1 bind?
A: binds
